Measured values: the supplement of paper PMC7877785
± gives the uncertainty stated by the source.

Test: self-splicing fitness, log relative to wild type (ln ratio); higher = more splicing; Tetrahymena group I intron in knt gene, E. coli kanamycin selection, DiMSum; sequences stand for … in CUCUCU…GGAGGGAAAAGUUAUCAGGCAUGCACCUGGUAGCUAGUCUUUAAACCAAUAGAUUGCAUCGGUUUAAAAGGCAAGACCGUCAAAUUGCGGGAAAGGGGUCAACAGCCGUUCAGUACCAAGUCUCAGGGGAAACUUUGAGAUGGCCUUGCAAAGGGUAUGGUAAUAAGCUGACGGACAUGGUCCUAACCACGCAGCCAAGUCCUAAGUCAACAGAUCUUCUGUUGAUAUGGAUGCAGUUCACAGACUAAAUGUCGGUCGGGGAAGAUGUAUUCUUCUCAUAAGAUAUAGUCGGACCUCUCCUUAAUGGGAGCUAGCGGAUGAAGUGAUGCAACACUGGAGCCGCUGGGAACUAAUUUGUAUGCGAAAGUAUAUUGAUUAGUUUUGGAGUACUCGUGGUCG
Procedure, shortened: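 Colonies from six replicate transformations of E. coli BL21(DE3) were pooled and amplicon-sequenced on an Illumina HiSeq 2500. The library placed an intron with all eight P1ex-region nucleotides randomised inside the knt kanamycin-resistance gene on pET-22b(+), and cells grew overnight at 37°C or 30°C on LB agar with or without 25 μg/mL kanamycin (plus 100 μg/mL carbenicillin, 50 μM IPTG, 0.2% rhamnose). Fitness is the DiMSum error-weighted combination of wild-type-normalised replicate fold changes, kanamycin versus none.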

Sequence | self-splicing fitness (ln) (30 °C) | self-splicing fitness (ln) (37 °C)
UCUCAGCAAUAUUACGCACG | -2.2 ± 0.2 | -2.06 ± 0.28
UCUCAGCAAUAUUACGCACU | -0.801 ± 0.13 | -0.465 ± 0.14
UCUCAGCAAUAUUACGCCAG | -1.94 ± 0.25 | -1.2 ± 0.34
UCUCAGCAAUAUUACGCCCA | -0.778 ± 0.12 | -1.88 ± 0.18
UCUCAGCAAUAUUACGCGCU | – | -3.12 ± 0.43
UCUCAGCAAUAUUACGCGGG | -1.7 ± 0.14 | -1.4 ± 0.15
UCUCAGCAAUAUUACGCGUG | -4.26 ± 0.24 | -3.11 ± 0.21
UCUCAGCAAUAUUACGCUAU | -3.62 ± 0.43 | -2.37 ± 0.23
UCUCAGCAAUAUUACGCUCG | -3.93 ± 0.25 | -2 ± 0.19
UCUCAGCAAUAUUACGCUGG | -3.25 ± 0.2 | -2.67 ± 0.2
UCUCAGCAAUAUUACGGAAA | -1.45 ± 0.14 | -0.892 ± 0.14
UCUCAGCAAUAUUACGGACA | -0.71 ± 0.099 | -0.369 ± 0.1
UCUCAGCAAUAUUACGGAUG | -2.78 ± 0.12 | -0.753 ± 0.13
UCUCAGCAAUAUUACGGCAG | -3.36 ± 0.31 | -0.98 ± 0.19
UCUCAGCAAUAUUACGGCGC | -2.56 ± 0.22 | -1.78 ± 0.31
UCUCAGCAAUAUUACGGGUG | -0.627 ± 0.072 | -0.219 ± 0.083
UCUCAGCAAUAUUACGGUCA | 0.115 ± 0.061 | 0.0673 ± 0.075
UCUCAGCAAUAUUACGGUGG | -2.24 ± 0.14 | -2.31 ± 0.18
UCUCAGCAAUAUUACGUAAC | -2.74 ± 0.21 | -2.2 ± 0.28
UCUCAGCAAUAUUACGUAGU | -1.71 ± 0.1 | -0.822 ± 0.11
UCUCAGCAAUAUUACGUAUG | -2.86 ± 0.42 | -2.79 ± 0.38
UCUCAGCAAUAUUACGUUAG | -3.98 ± 0.4 | -2.34 ± 0.27
UCUGAGCAAUAUUACGAAAG | -2.21 ± 0.27 | -1.71 ± 0.27
UCUGAGCAAUAUUACGACCG | -2.92 ± 0.4 | -2.39 ± 0.46
UCUGAGCAAUAUUACGACGG | -1.18 ± 0.11 | -0.451 ± 0.12
UCUGAGCAAUAUUACGCAUC | – | -2.47 ± 0.49
UCUGAGCAAUAUUACGCCUA | – | -0.697 ± 0.44

Sequence | self-splicing fitness (ln) (30 °C) | self-splicing fitness (ln) (37 °C)
UCUGAGCAAUAUUACGCGGG | -3.91 ± 0.26 | -2.29 ± 0.2
UCUGAGCAAUAUUACGGACU | -2.57 ± 0.39 | -1.21 ± 0.41
UCUGAGCAAUAUUACGGAGA | -2.35 ± 0.17 | -0.963 ± 0.14
UCUGAGCAAUAUUACGGAGC | -2.77 ± 0.21 | -2.92 ± 0.2
UCUGAGCAAUAUUACGGCAC | -4.07 ± 0.47 | -1.06 ± 0.28
UCUGAGCAAUAUUACGGCGG | -0.492 ± 0.094 | -0.249 ± 0.14
UCUGAGCAAUAUUACGGUAC | -3.24 ± 0.47 | –
UCUGAGCAAUAUUACGUGAU | -3.42 ± 0.23 | -1.42 ± 0.44
UCUGAGCAAUAUUACGUGCU | -3.52 ± 0.4 | –
UCUGAGCAAUAUUACGUUAC | -3.38 ± 0.2 | -2.33 ± 0.22
UCUGAGCAAUAUUACGUUAU | -3.6 ± 0.31 | -3.68 ± 0.42
UCUGAGCAAUAUUACGUUCU | -3.98 ± 0.3 | -2.89 ± 0.31
UCUGAGCAAUAUUACGUUGG | -0.956 ± 0.13 | -0.905 ± 0.15
UCUUAGCAAUAUUACGAAAU | -3.48 ± 0.33 | -3.09 ± 0.35
UCUUAGCAAUAUUACGAAUC | -3.32 ± 0.5 | –
UCUUAGCAAUAUUACGAGAG | -2.35 ± 0.26 | -0.861 ± 0.16
UCUUAGCAAUAUUACGAUAU | – | -1.78 ± 0.38
UCUUAGCAAUAUUACGAUCG | -1.44 ± 0.19 | -0.631 ± 0.19
UCUUAGCAAUAUUACGAUCU | -2.59 ± 0.29 | -2.04 ± 0.29
UCUUAGCAAUAUUACGAUGA | -0.467 ± 0.082 | 0.223 ± 0.084
UCUUAGCAAUAUUACGCACC | – | -1.21 ± 0.37
UCUUAGCAAUAUUACGCAGU | -2.76 ± 0.22 | -1.05 ± 0.13
UCUUAGCAAUAUUACGCAUG | -1.98 ± 0.18 | -0.995 ± 0.19
UCUUAGCAAUAUUACGCCGG | -1.85 ± 0.26 | 0.459 ± 0.31
UCUUAGCAAUAUUACGCGGC | -2.44 ± 0.3 | -0.722 ± 0.36
UCUUAGCAAUAUUACGCUUC | -4.09 ± 0.35 | -2.41 ± 0.19
UCUUAGCAAUAUUACGGAAG | – | -1.81 ± 0.41

Sequence | self-splicing fitness (ln) (30 °C) | self-splicing fitness (ln) (37 °C)
UCUUAGCAAUAUUACGGAGA | – | -2.76 ± 0.38
UCUUAGCAAUAUUACGGCAG | -3.36 ± 0.26 | -2.23 ± 0.3
UCUUAGCAAUAUUACGGCAU | -3.42 ± 0.33 | -1.75 ± 0.23
UCUUAGCAAUAUUACGGCCG | -2.11 ± 0.37 | -0.349 ± 0.33
UCUUAGCAAUAUUACGGGAA | – | -0.457 ± 0.3
UCUUAGCAAUAUUACGGUAG | – | -2.11 ± 0.41
UCUUAGCAAUAUUACGUCCA | -1.92 ± 0.13 | -1.93 ± 0.18
UGAAAGCAAUAUUACGAACG | 0.0634 ± 0.17 | 0.684 ± 0.2
UGAAAGCAAUAUUACGACGA | -0.661 ± 0.12 | -0.101 ± 0.12
UGAAAGCAAUAUUACGAGUA | -1.45 ± 0.1 | -0.821 ± 0.092
UGAAAGCAAUAUUACGAUAG | -1.07 ± 0.098 | -0.612 ± 0.098
UGAAAGCAAUAUUACGCAAU | -2.16 ± 0.24 | 0.457 ± 0.23
UGAAAGCAAUAUUACGCAGU | -3.25 ± 0.22 | -1.3 ± 0.13
UGAAAGCAAUAUUACGCCGG | -0.876 ± 0.11 | -0.346 ± 0.15
UGAAAGCAAUAUUACGCGUC | -2.59 ± 0.31 | -2.56 ± 0.34
UGAAAGCAAUAUUACGGCUC | -1.4 ± 0.13 | -0.842 ± 0.12
UGAAAGCAAUAUUACGGGGC | -3.89 ± 0.23 | -2.73 ± 0.19
UGAAAGCAAUAUUACGGUAC | -3.27 ± 0.32 | -2.07 ± 0.24
UGAAAGCAAUAUUACGGUUU | -1.87 ± 0.1 | -1.16 ± 0.12
UGAAAGCAAUAUUACGUACU | -0.121 ± 0.089 | -0.476 ± 0.091
UGAAAGCAAUAUUACGUCUC | -3.36 ± 0.24 | -2.18 ± 0.23
UGAAAGCAAUAUUACGUGCA | 0.0492 ± 0.078 | 0.75 ± 0.098
UGAAAGCAAUAUUACGUGUG | -1.67 ± 0.077 | -0.52 ± 0.081
UGAAAGCAAUAUUACGUUAU | -3.73 ± 0.19 | -1.76 ± 0.11
UGAAAGCAAUAUUACGUUGG | -2.36 ± 0.091 | -1.66 ± 0.11
UGAAAGCAAUAUUACGUUUG | -2.94 ± 0.13 | -0.682 ± 0.11
